In paper PMC10103940:

Molecular target: yNup100FG (yeast) (UniProt Q02629)
Assay: high-speed atomic force microscopy

Chain of UniProt Q02629 (Q02629 whole entry): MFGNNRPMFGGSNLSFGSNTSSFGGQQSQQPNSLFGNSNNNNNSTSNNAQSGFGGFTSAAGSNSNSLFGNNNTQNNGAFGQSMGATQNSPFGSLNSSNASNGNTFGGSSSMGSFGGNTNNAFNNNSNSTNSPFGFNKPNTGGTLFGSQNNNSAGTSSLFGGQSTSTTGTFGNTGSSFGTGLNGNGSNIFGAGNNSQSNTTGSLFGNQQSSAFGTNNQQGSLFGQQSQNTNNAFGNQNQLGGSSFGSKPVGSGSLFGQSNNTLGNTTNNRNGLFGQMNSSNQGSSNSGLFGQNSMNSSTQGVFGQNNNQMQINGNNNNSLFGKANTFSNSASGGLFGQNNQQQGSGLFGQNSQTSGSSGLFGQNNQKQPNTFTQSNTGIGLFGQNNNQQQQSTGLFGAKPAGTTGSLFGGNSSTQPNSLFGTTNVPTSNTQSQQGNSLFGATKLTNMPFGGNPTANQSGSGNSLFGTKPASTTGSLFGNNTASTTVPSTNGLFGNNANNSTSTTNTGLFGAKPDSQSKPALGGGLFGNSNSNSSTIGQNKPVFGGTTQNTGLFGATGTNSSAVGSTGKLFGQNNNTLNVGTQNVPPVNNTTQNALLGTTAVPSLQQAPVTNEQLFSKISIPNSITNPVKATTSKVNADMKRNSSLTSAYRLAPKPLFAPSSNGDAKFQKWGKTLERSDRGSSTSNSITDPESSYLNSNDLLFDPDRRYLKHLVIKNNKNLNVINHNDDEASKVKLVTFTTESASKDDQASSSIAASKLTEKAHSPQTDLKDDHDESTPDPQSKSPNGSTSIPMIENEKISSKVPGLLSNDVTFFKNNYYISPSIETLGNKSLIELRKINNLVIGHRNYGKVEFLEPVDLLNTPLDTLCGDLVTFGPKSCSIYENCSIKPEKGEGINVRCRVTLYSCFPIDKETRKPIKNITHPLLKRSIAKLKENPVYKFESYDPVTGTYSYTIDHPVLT

height increase of the hydrogel due to Kap95 binding: 31.2 nm
Substance: Yeast Kap95 (recombinant) (from UniProt Q06142 1-861) (natural protein)
